In patent CN113512111A (BEIJING MABWORKS BIOTECH CO LTD, dated 2021):

B1: 抗体MIL77-1 (anti-Ebola virus glycoprotein monoclonal antibody, afucosylated, made in CHOK1-AF cells) (antibody)
heavy: not shown
light: DIQMTQSPASLSVSVGETVSITCRASENIYSSLAWYQQKQGKSPQLLVYSATILADGVPSRFSGSGSGTQYSLKINSLQSEDFGTYYCQHFWGTPYTFGGGTKLEIKRTVAAPSVFIFPPSDEQLKSGTASVVCLLNNFYPREAKVQWKVDNALQSGNSQESVTEQDSKDSTYSLSSTLTLSKADYEKHKVYACEVTHQGLSSPVTKSFNRGEC
B2: 抗体MIL77-2 (anti-Ebola virus glycoprotein monoclonal antibody, afucosylated, made in CHOK1-AF cells) (antibody)
heavy: not shown
light: DIQMTQSPASLSASVGETVTITCRASENIYSYLAWYQQKQGKSPQLLVYNAKTLIEGVPSRFSGSGSGTQFSLKINSLQPEDFGSYFCQHHFGTPFTFGSGTELEIKRTVAAPSVFIFPPSDEQLKSGTASVVCLLNNFYPREAKVQWKVDNALQSGNSQESVTEQDSKDSTYSLSSTLTLSKADYEKHKVYACEVTHQGLSSPVTKSFNRGEC

What was measured:
[1] = molecular target: FcγRIIIa(158V) (UniProt P08637 17-208)
[2] = molecular target: C1q蛋白 (UniProt P02745 23-245; P02746 28-253; P02747 29-245)
[3] = molecular target: T1, 埃博拉病毒表面抗原GP蛋白 (soluble GP used as the analyte in BIAcore) (埃博拉病毒 (Ebola virus), UniProt Q05320 33-650)
T1 sequence: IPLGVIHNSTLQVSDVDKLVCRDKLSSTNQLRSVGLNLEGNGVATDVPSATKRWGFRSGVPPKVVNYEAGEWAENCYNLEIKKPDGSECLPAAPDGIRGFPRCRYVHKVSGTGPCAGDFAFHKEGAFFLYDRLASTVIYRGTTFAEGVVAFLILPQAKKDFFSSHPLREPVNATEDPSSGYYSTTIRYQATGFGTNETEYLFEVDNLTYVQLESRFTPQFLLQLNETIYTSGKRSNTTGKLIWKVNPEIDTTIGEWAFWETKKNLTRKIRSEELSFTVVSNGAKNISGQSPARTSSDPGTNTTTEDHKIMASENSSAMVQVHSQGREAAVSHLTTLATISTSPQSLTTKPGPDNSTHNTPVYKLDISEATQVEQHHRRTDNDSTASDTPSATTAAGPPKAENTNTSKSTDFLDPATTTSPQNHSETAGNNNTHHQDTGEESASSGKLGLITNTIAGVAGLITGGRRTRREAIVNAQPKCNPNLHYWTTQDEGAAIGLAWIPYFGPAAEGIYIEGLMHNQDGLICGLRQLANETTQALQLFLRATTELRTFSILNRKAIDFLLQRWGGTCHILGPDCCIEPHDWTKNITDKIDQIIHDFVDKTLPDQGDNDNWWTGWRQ

[4] = molecular target: T2, 埃博拉GP蛋白 on 埃博拉假病毒(扎伊尔型) (HIV-backbone luciferase pseudovirus) (埃博拉病毒(扎伊尔型) (Zaire ebolavirus), UniProt Q05320 33-676); test: cell-based or functional assay
T2 sequence: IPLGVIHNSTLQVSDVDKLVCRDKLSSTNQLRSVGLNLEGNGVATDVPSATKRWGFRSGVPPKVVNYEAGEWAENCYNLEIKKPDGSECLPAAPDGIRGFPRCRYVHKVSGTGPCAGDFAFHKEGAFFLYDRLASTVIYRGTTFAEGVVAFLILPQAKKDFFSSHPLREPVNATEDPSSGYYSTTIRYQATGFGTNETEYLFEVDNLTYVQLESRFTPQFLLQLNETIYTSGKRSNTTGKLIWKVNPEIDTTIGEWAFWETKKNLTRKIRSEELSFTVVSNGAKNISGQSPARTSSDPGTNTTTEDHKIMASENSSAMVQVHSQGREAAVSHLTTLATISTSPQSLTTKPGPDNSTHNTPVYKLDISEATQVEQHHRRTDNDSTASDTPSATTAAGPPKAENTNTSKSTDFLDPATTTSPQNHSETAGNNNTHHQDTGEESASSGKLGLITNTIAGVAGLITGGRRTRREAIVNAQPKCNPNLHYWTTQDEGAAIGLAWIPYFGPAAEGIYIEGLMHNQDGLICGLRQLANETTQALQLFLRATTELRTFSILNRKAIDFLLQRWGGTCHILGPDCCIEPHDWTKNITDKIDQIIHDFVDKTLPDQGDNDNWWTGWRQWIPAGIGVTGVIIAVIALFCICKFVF

Sequence of C1q蛋白 (P02745 23-245 limits assumed, chain 1 of 3): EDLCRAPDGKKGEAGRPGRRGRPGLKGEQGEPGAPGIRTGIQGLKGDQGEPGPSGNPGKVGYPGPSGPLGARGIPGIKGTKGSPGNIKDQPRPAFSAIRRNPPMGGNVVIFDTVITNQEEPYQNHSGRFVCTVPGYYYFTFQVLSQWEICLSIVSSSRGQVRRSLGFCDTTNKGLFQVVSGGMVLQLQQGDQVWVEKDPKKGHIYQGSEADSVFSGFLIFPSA
Sequence of C1q蛋白 (P02746 28-253 limits assumed, chain 2 of 3): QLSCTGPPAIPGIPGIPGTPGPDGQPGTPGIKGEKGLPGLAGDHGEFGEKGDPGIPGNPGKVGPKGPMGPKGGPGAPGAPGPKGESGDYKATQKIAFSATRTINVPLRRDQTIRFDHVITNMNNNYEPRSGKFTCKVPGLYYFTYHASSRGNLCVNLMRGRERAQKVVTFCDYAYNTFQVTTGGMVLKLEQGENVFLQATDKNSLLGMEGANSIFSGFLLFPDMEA
Sequence of C1q蛋白 (P02747 29-245 limits assumed, chain 3 of 3): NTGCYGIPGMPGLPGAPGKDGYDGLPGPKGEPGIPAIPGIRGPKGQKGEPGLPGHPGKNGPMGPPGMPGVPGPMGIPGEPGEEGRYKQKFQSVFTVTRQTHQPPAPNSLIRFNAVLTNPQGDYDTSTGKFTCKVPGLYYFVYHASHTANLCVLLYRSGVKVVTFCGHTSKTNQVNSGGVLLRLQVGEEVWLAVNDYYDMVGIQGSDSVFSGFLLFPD
Sequence of FcγRIIIa(158V) (P08637 17-208 F176V limits assumed): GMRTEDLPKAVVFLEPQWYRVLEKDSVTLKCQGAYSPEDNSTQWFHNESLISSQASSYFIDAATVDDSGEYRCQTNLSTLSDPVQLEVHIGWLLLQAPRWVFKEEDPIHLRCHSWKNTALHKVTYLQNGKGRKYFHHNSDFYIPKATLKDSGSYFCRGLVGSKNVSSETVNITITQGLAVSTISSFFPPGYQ

Binder | EC50 [1] [µg/mL] | EC50 [2] [µg/mL] | Kd [3] [nM] | 体外假病毒感染细胞中和活性 半数抑制浓度(IC50), HEK293细胞体系, batch M20141202 [4] [µg/mL] | 体外假病毒感染细胞中和活性 半数抑制浓度(IC50), Huh7细胞体系, luciferase reporter [4] [µg/mL] | 体外假病毒感染细胞中和活性 半数抑制浓度(IC50), HEK293细胞体系, batch M20141203 [4] [µg/mL] | 体外假病毒感染细胞中和活性 半数抑制浓度(IC50), HEK293细胞体系, batch M20150101 [4] [µg/mL]
B1 | 0.062 to 0.064 | 0.818 to 0.96 | 50.6 to 53.8 | 4.59 | 0.799 |  | 
B2 | 0.054 to 0.073 | 0.772 to 0.968 | 31.9 to 36.2 | 0.058 | 0.359 | 0.023 | 0.017
